{"source": "paper PMC7903523", "about": "(Nature, 2020)", "target": "the molecule itself", "assay": "cryo-EM structure", "data": [{"protein": "human sterol O-acyltransferase 1 (ACAT1), full length, C-terminal Flag-tag (enzyme, UniProt P35610 1-550, looked up) MVGEEKMSLRNRLSKSRENPEEDEDQRNPAKESLETPSNGRIDIKQLIAKKIKLTAEAEELKPFFMKEVGSHFDDFVTNLIEKSASLDNGGCALTTFSVLEGEKNNHRAKDLRAPPEQGKIFIARRSLLDELLEVDHIRTIYHMFIALLILFILSTLVVDYIDEGRLVLEFSLLSYAFGKFPTVVWTWWIMFLSTFSVPYFLFQHWATGYSKSSHPLIRSLFHGFLFMIFQIGVLGFGPTYVVLAYTLPPASRFIIIFEQIRFVMKAHSFVRENVPRVLNSAKEKSSTVPIPTVNQYLYFLFAPTLIYRDSYPRNPTVRWGYVAMKFAQVFGCFFYVYYIFERLCAPLFRNIKQEPFSARVLVLCVFNSILPGVLILFLTFFAFLHCWLNAFAEMLRFGDRMFYKDWWNSTSYSNYYRTWNVVVHDWLYYYAYKDFLWFFSKRFKSAAMLAVFAVSAVVHEYALAVCLSFFYPVLFVLFMFFGMAFNFIVNDSRKKPIWNVLMWTSLFLGNGVLLCFYSQEWYARQHCPLKNPTFLDYVRPRSWTCRYVF", "values": [{"measurement": "stoichiometry N", "value": 4}]}]}
